Experimental findings from patent publication US20090042869 are described below.

The target in the data set is recombinant SF2/ASF (Protein One) (UniProt Q07955).
Chain of recombinant SF2/ASF (Protein One) (Q07955 whole entry): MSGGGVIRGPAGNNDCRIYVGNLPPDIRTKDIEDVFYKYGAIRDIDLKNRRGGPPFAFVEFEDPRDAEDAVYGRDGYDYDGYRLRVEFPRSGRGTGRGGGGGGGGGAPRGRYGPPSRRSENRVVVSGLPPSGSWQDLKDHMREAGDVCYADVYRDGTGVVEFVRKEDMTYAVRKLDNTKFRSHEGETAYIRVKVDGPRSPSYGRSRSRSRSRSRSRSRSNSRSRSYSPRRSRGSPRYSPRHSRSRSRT

Chain of Clk1 (Cdc2-like kinase), endogenous, from human platelets (chain, as listed by the source): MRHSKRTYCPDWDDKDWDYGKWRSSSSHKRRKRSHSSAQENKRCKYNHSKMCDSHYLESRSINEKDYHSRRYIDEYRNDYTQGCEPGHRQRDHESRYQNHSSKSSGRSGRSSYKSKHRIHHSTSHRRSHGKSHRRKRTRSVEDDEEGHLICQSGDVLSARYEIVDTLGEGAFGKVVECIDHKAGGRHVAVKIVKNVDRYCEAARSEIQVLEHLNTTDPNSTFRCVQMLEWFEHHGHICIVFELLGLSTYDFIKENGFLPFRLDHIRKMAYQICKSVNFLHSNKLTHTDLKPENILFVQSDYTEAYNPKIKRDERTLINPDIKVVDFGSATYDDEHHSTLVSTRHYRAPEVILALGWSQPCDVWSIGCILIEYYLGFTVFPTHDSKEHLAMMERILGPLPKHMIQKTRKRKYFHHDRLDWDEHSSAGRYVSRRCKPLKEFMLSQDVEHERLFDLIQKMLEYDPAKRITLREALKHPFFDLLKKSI

As to “Clk1 (Cdc2-like kinase), endogenous, from human platelets”, the “SF2/ASF phosphorylation (immune complex kinase assay)” value was “Clk1 from activated platelets (grown on immobilized fibrinogen in the presence of thrombin for 30 minutes) markedly increased SF2/ASF phosphorylation”.
